Measured values as given in US20100159560.

Key:
[1] = biological target: T1, protransglutaminase of Streptoverticillium mobaraense IFO13819 (pro-MTG) (UniProt P81453)
T1 sequence: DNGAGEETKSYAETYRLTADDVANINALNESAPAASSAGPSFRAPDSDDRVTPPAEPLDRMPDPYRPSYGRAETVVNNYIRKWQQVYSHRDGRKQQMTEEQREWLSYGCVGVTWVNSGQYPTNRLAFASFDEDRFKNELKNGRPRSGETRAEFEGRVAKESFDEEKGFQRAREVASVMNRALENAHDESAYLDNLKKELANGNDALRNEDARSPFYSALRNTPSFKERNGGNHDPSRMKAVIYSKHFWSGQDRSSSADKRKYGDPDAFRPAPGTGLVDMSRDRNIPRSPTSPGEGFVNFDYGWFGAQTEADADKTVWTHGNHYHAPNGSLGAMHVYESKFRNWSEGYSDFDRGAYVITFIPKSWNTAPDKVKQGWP

[2] = biological target: T2, Streptomyces subtilisin inhibitor (SSI) derived from actinomycetes (UniProt P01006)
T2 sequence: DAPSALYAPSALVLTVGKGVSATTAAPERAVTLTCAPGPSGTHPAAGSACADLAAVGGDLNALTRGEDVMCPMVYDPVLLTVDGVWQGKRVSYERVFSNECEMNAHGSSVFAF

Substance	conversion of pro-MTG to mature MTG (SDS-PAGE time course; TG activity by the hydroxamate method), substrate:enzyme = 200:1 [1]	amount of protease needed to convert pro-MTG to active MTG (TG activity by the hydroxamate method, MTG protein by reverse phase chromatography) [1]	cleavage points (HPLC separation and sequencing of peptide fragments) [1]	cleavage points (HPLC separation and sequencing of peptide fragments) (insulin B)	relative activity (Gly-Pro-Ser-Phe-Arg-Ala-Pro-Asp-Ser cleavage activity, absence of compounds = 100%) [2]	amount of protease needed to convert pro-MTG to active MTG (TG activity by the hydroxamate method) [1]
neutral metalloprotease SGMP II from Streptomyces griseus	pro-MTGs were converted to the mature forms, and the produced MTGs were not reduced even after a long-term reaction					
neutral metalloprotease SVP70 from Streptoverticillium mobaraense IFO13819	pro-MTGs were converted to the mature forms, and the produced MTGs were not reduced even after a long-term reaction	SVP could convert pro-MTG to active MTG with an amount as small as 1/500 of the substrate	cleaved before (at N-terminal side of) especially Phe, often Leu, sometimes Tyr, Trp, Ile, Val	cleaved before (at N-terminal side of) especially Phe, often Leu, sometimes Tyr, Trp, Ile, Val	underwent strong inhibitory action	
serine protease SAM-P45 (Streptomyces albogriseolus)		when SAM-P45 was added at an amount of 1/10 of the substrate, the conversion into the active MTG was observed, but a decrease in the amount and the activity of MTG-protein was observed				generated only insufficient transglutaminase activity even at an amount of 1/50 of the substrate, and that the complete conversion to the active form was not observed
